Results from publication PMC9229378, “Copper-67-Labeled Bombesin Peptide for Targeted Radionuclide Therapy of Prostate Cancer” (Pharmaceuticals, 2022).
Where two headings read alike, the source gives them in different places.

Tests used:
[1] = type: in vitro ADME, human
Description: (§1) Briefly, 100 µL of the radiolabeled complex was added to 100 µL PBS 1X or human serum (HSA […]) in triplicate. [^67Cu]Cu-SAR-BBN was incubated at 37 °C for 14, 24, 48, 72, and 96 h with moderate agitation. An aliquot (0.5 μL) was withdrawn at each specified time point. Radio-TLCs with a mobile phase of 50 mM DTPA were performed to evaluate the percentage of intact radiolabeled peptides.

Stability in PBS 1X = type: physicochemical; details: 1:1 with radiolabeled complex, 37 °C, 96 h, moderate agitation, radio-TLC, 50 mM DTPA, triplicate
Description: as §1

[2] = tested on: GRPR-positive PC-3 cell line; experiment: Cell binding and internalization; type: cell-based; details: PC-3 cells
Description: The PC-3 cell line was purchased from ATCC (Manassas, VA, USA), revived from liquid nitrogen storage, and cultured at 37 °C, 5% CO2. PC-3 cells were cultured in media containing DMEM, 10% heat-inactivated fetal bovine serum (FBS) (Gibco, Thermo Fisher Scientific, Inc., Waltham, MA, USA), and 10 mM HEPES.
A PC-3 cell suspension was prepared in 1X PBS at a concentration of 10^6 cells/100 μL. Eppendorf tubes (in triplicates) were pretreated with 5% bovine serum albumin (BSA) in PBS to block non-specific binding. Tyr^4-BBN, as a blocking agent, was diluted in 5% BSA in PBS. Then, 100 μL of cells and either 20 μg block or PBS 1X were added to each tube. Approximately 100,000 cpm of [^67Cu]Cu-SAR-BBN was added to the tubes. Cells were incubated at 37 °C at moderate speed to prevent cell settling. After each specified time point (30, 60, 120, 240, and 360 min), cells were centrifuged and the supernatant was aspirated from cell pellets, which was followed by two additional rinses with ice-cold PBS. Cells pellets were then collected and counted for activity on a gamma counter. To determine the fraction of internalized radiotracer, cells were treated with 2 × 0.5 mL of 20 mM sodium acetate (pH 4.0) for 2 min to remove surface-bound radioactivity and counted again for activity.

[3] = Biodistribution in normal tissues; type: in vivo, C57BL/6 female mice; details: for tissue uptake at 2 h / tissue uptake at 4 h / tissue uptake at 6 h / tissue uptake at 24 h / tissue uptake at 72 h / tissue uptake at 144 h / tissue uptake at 216 h / tissue uptake at 1 h: female, C57BL/6, mouse, iv, 0.37 MBq, total radioactivity
Description: To determine the biodistribution of [^67Cu]Cu-SAR-BBN in normal tissues, 40 female C57BL/6 mice were evaluated in groups of 5 mice at various time points. [^67Cu]Cu-SAR-BBN was prepared in 0.9% saline with a concentration of 0.37 MBq (10 µCi) per 100 µL. Mice (n = 5) were injected with 0.37 MBq radiotracers via tail vein and sacrificed by cervical dislocation at 1 h, 2 h, 4 h, 6 h, 24 h, 3 days, 6 days, and 9 days. Blood, lung, liver, spleen, kidney, muscle, heart, bone, and pancreas were harvested and counted for activity on a gamma counter. The percent injected dose per gram for each tissue of interest (% ID/g) was calculated and expressed as Mean ± SD. All radioactivity measurements were corrected for decay.

PC-3 tumors [4] = experiment: Therapy study in PC-3 tumor-bearing mice; type: in vivo, athymic nude mice
Description: (§2) To assess the therapeutic potential of [^67Cu]Cu-SAR-BBN, athymic nude mice bearing subcutaneous PC-3 tumors with a tumor size of ~150 mm^3 were randomly assigned into 2 groups (n = 12 mice per group). For treatment, mice were dosed intravenously with three injections of 24 MBq [^67Cu]Cu-SAR-BBN on days 0, 2, and 4, followed by a drug-free week before the injections of 24 MBq on days 14, 16, and 18. The total activity injected corresponded to 144 MBq. The control group was injected via tail vein with six injections of 0.9% saline at the same time points. Body weight and tumor volume (through caliper measurements) were monitored and recorded three times a week. Tumor size was calculated by the following formula: L × W^2/2, where L is the long diameter of the tumor and W is the short diameter of the tumor. […] Any remaining mice at day 54 were euthanized, and tumor volume and survival curves were generated and analyzed to evaluate the efficacy of [^67Cu]Cu-SAR-BBN. Percentage tumor growth inhibition was calculated as 100 × (1 − ΔT/ΔC), where ΔC and ΔT were determined by subtracting the mean tumor volume (in the vehicle control and treated group, respectively) on day 0 of treatment from the mean tumor volume on day 19 (the last day all mice remained in the study). […]

[5] = Treatment-related toxicity (body weight, H&E histology of kidney, pancreas, liver); type: in vivo, athymic nude mice
Description: as §2

PC-3 tumors [6] = experiment: Tumor histology and Ki-67 immunostaining; type: in vivo, athymic nude mice
Description: The kidneys, pancreas, livers, and tumors of 4 control mice and 4 treated mice were harvested and fixed in neutral buffered formalin. After fixation and dehydration, tissue samples were embedded in paraffin, and tissue sections were then stained with either hematoxylin and eosin (H&E) or Ki-67 for microscopic examination. H&E staining of tissue samples was prepared by the Anatomic and Molecular Pathology Core Lab, Washington University in St Louis. Ki-67 immunostaining was performed on 5 µm tissue sections of PC-3 tumors. The slides were baked in 55 °C oven for 60 min. The sections were deparaffinized, and heat-induced antigen retrieval was performed in citrate buffer 0.1 M pH 6.0 at 92 °C. After 20 min, the slides were cooled in 4 °C fridge for 15 min. The sections were then blocked with Dako Endogenous Enzyme Block (Dako North America, Inc., Carpinteria, CA, USA) for 10 min and washed twice with Dako Wash Buffer 1X. The sections were blocked with 10% goat serum in PBS for another 45 min and washed 2 × 5 min with Dako Wash Buffer 1X. The slides were then rinsed and incubated with Ki-67 antibody (1:100 dilution) overnight at 4 °C. […] Staining results were assessed by Olympus fluorescent microscope (BX51) and the cell Sense software in a blinded manner.

CC(C)C[C@H](NC(=O)C[C@H](O)[C@H](CC(C)C)NC(=O)[C@H](Cc1c[nH]cn1)NC(=O)CNC(=O)[C@@H](NC(=O)[C@H](C)NC(=O)[C@H](Cc1c[nH]c2ccccc12)NC(=O)[C@H](CCC(N)=O)NC(=O)[C@@H](Cc1ccccc1)NC(=O)CCOCCOCCOCCOCCNC(=O)CCCC(=O)NC12CNCCNCC(C)(CNCCNC1)CNCCNC2)C(C)C)C(N)=O [[^67Cu]Cu-SAR-BBN, metal not drawn]
free 67Cu in human serum [1]: < 5%
intact radiolabeled peptide in PBS 1X (Stability in PBS 1X): greater than 95%
bound to the GRPR receptors ([2]; 37 °C): more than 50%
internalized into the cells ([2]; 37 °C): about 20%
total bound with blocking (non-specific binding, % of total added radioactivity) ([2]; excess Tyr4-BBN (20 μg block)): 5.8 ± 0.1%
Kidney %ID/g ([3]; 1 h after i.v. injection of 0.37 MBq, mean, n = 5): 6.15 %ID/g
tissue uptake at 2 h ([3]; in vivo, Blood %ID/g): 0.62 %ID/g
tissue uptake at 4 h ([3]; in vivo, Blood %ID/g): 0.53 %ID/g
tissue uptake at 6 h ([3]; in vivo, Blood %ID/g): 0.54 %ID/g
tissue uptake at 24 h ([3]; in vivo, Blood %ID/g): 0.33 %ID/g
tissue uptake at 72 h ([3]; in vivo, Blood %ID/g): 0.39 %ID/g
tissue uptake at 144 h ([3]; in vivo, Blood %ID/g): 0.11 %ID/g
tissue uptake at 216 h ([3]; in vivo, Blood %ID/g): 0.06 %ID/g
tissue uptake at 1 h ([3]; in vivo, Bone %ID/g): 0.88 %ID/g
tissue uptake at 2 h ([3]; in vivo, Bone %ID/g): 0.4 %ID/g
tissue uptake at 4 h ([3]; in vivo, Bone %ID/g): 0.47 %ID/g
tissue uptake at 6 h ([3]; in vivo, Bone %ID/g): 0.46 %ID/g
tissue uptake at 24 h ([3]; in vivo, Bone %ID/g): 0.31 %ID/g
tissue uptake at 72 h ([3]; in vivo, Bone %ID/g): 0.25 %ID/g
tissue uptake at 144 h ([3]; in vivo, Bone %ID/g): 0.09 %ID/g
tissue uptake at 216 h ([3]; in vivo, Bone %ID/g): 0.09 %ID/g
tissue uptake at 1 h ([3]; in vivo, Heart %ID/g): 1 %ID/g
tissue uptake at 2 h ([3]; in vivo, Heart %ID/g): 0.58 %ID/g
tissue uptake at 4 h ([3]; in vivo, Heart %ID/g): 0.78 %ID/g
tissue uptake at 6 h ([3]; in vivo, Heart %ID/g): 0.84 %ID/g
tissue uptake at 24 h ([3]; in vivo, Heart %ID/g): 0.84 %ID/g
tissue uptake at 72 h ([3]; in vivo, Heart %ID/g): 1.35 %ID/g
tissue uptake at 144 h ([3]; in vivo, Heart %ID/g): 0.93 %ID/g
tissue uptake at 216 h ([3]; in vivo, Heart %ID/g): 0.58 %ID/g
tissue uptake at 2 h ([3]; in vivo, Liver %ID/g): 5.08 %ID/g
tissue uptake at 4 h ([3]; in vivo, Liver %ID/g): 5.9 %ID/g
tissue uptake at 6 h ([3]; in vivo, Liver %ID/g): 6.78 %ID/g
tissue uptake at 24 h ([3]; in vivo, Liver %ID/g): 3.8 %ID/g
tissue uptake at 72 h ([3]; in vivo, Liver %ID/g): 4.03 %ID/g
tissue uptake at 144 h ([3]; in vivo, Liver %ID/g): 1.31 %ID/g
tissue uptake at 216 h ([3]; in vivo, Liver %ID/g): 0.59 %ID/g
tissue uptake at 2 h ([3]; in vivo, Lung %ID/g): 1.95 %ID/g
tissue uptake at 4 h ([3]; in vivo, Lung %ID/g): 2.68 %ID/g
tissue uptake at 6 h ([3]; in vivo, Lung %ID/g): 3.25 %ID/g
tissue uptake at 24 h ([3]; in vivo, Lung %ID/g): 1.81 %ID/g
tissue uptake at 72 h ([3]; in vivo, Lung %ID/g): 1.89 %ID/g
tissue uptake at 144 h ([3]; in vivo, Lung %ID/g): 0.68 %ID/g
tissue uptake at 216 h ([3]; in vivo, Lung %ID/g): 0.32 %ID/g
tissue uptake at 1 h ([3]; in vivo, Muscle %ID/g): 0.52 %ID/g
tissue uptake at 2 h ([3]; in vivo, Muscle %ID/g): 0.25 %ID/g
tissue uptake at 4 h ([3]; in vivo, Muscle %ID/g): 0.35 %ID/g
tissue uptake at 6 h ([3]; in vivo, Muscle %ID/g): 0.59 %ID/g
tissue uptake at 24 h ([3]; in vivo, Muscle %ID/g): 0.2 %ID/g
tissue uptake at 72 h ([3]; in vivo, Muscle %ID/g): 0.27 %ID/g
tissue uptake at 144 h ([3]; in vivo, Muscle %ID/g): 0.21 %ID/g
tissue uptake at 216 h ([3]; in vivo, Muscle %ID/g): 0.15 %ID/g
tissue uptake at 2 h ([3]; in vivo, Pancreas %ID/g): 14.7 %ID/g
tissue uptake at 4 h ([3]; in vivo, Pancreas %ID/g): 5.48 %ID/g
tissue uptake at 6 h ([3]; in vivo, Pancreas %ID/g): 3.38 %ID/g
tissue uptake at 24 h ([3]; in vivo, Pancreas %ID/g): 0.55 %ID/g
tissue uptake at 72 h ([3]; in vivo, Pancreas %ID/g): 0.75 %ID/g
tissue uptake at 144 h ([3]; in vivo, Pancreas %ID/g): 0.39 %ID/g
tissue uptake at 216 h ([3]; in vivo, Pancreas %ID/g): 0.22 %ID/g
tissue uptake at 1 h ([3]; in vivo, Spleen %ID/g): 1.94 %ID/g
tissue uptake at 2 h ([3]; in vivo, Spleen %ID/g): 1.27 %ID/g
tissue uptake at 4 h ([3]; in vivo, Spleen %ID/g): 0.94 %ID/g
tissue uptake at 6 h ([3]; in vivo, Spleen %ID/g): 0.9 %ID/g
tissue uptake at 24 h ([3]; in vivo, Spleen %ID/g): 0.51 %ID/g
tissue uptake at 72 h ([3]; in vivo, Spleen %ID/g): 0.74 %ID/g
tissue uptake at 144 h ([3]; in vivo, Spleen %ID/g): 0.3 %ID/g
tissue uptake at 216 h ([3]; in vivo, Spleen %ID/g): 0.14 %ID/g
tissue uptake at 2 h ([3]; kidney, 2 h after i.v. injection of 0.37 MBq, mean, n = 5, read-out: Kidney %ID/g): 3.99 %ID/g
tissue uptake at 4 h ([3]; kidney, 4 h after i.v. injection of 0.37 MBq, mean, n = 5, read-out: Kidney %ID/g): 3.48 %ID/g
tissue uptake at 6 h ([3]; kidney, 6 h after i.v. injection of 0.37 MBq, mean, n = 5, read-out: Kidney %ID/g): 3.53 %ID/g
tissue uptake at 24 h ([3]; kidney, 24 h after i.v. injection of 0.37 MBq, mean, n = 5, read-out: Kidney %ID/g): 2.37 %ID/g
tissue uptake at 72 h ([3]; kidney, 72 h after i.v. injection of 0.37 MBq, mean, n = 5, read-out: Kidney %ID/g): 3.1 %ID/g
tissue uptake at 144 h ([3]; kidney, 6 days after i.v. injection of 0.37 MBq, mean, n = 5, read-out: Kidney %ID/g): 1.37 %ID/g
tissue uptake at 216 h ([3]; kidney, 9 days after i.v. injection of 0.37 MBq, mean, n = 5, read-out: Kidney %ID/g): 0.74 %ID/g
reduction of activity circulating in the blood relative to the 1 h value ([3]; mouse, in vivo): over 70%
rapid recurrence of tumor needing early sacrifice (PC-3 tumors [4]; 144 MBq over 3 weeks): no animals having a rapid recurrence
median survival (time to tumor endpoint of 2500 mm^3) (PC-3 tumors [4]; six i.v. doses of 24 MBq, total 144 MBq, n = 12, study ended day 54, control 34.5 days, p = 0.0015): greater than 54 days
histological changes in kidney, pancreas and liver vs control (H&E) ([5]; mouse, in vivo): no significant histological changes
deaths or euthanasia not related to tumor volume ([5]; treated group, n = 12, censored in the survival analysis): one mouse from the [^67Cu]Cu-SAR-BBN group was euthanized due to tumor ulceration (day 38), and another two died due to unknown causes (day 5 and day 22)
tumor necrosis (blinded review of tumor samples) (PC-3 tumors [6]; 4 tumors per group): more extensive areas of necrosis in three out of four tumors
mean proliferation index (PI), Ki-67 (PC-3 tumors [6]; tumor areas without necrosis, immune infiltrate or host stroma, 4 tumors, control 38.1%, p = 0.26): 50.3%
